Results from the nanobody polyreactivity screen of Harvey et al. (2022).

Assay: yeast display, Sf9 membrane polyspecificity reagent, FACS + sequencing; frameworks hold sequencing errors
In short: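 A nanobody's polyreactivity label depends on the gate it was sorted from. Yeast display cells were stained with 10% biotinylated, detergent-solubilized Sf9 membrane reagent for 1 hour at 4 °C, enriched on streptavidin microbeads and sorted by FACS. The low and high (top ~1%) gates were set on anti-HA fluorescence for expression and streptavidin fluorescence for reagent binding.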

Sequence	polyreactivity (PSR sort gate)
QVQLVESGGGLVQAGGSLRLSCAASGRTFRVYVMGWYRQAPGKERELVAAISKSGTSTYYADSVKGRFTISRDNAKNTVYLQMNSLKPEDTAVYYCAAALPGYGDYYYWGQGTQVTVSS	high polyreactivity
QVQLVESCGGLVQAGGSLRLSCAASGHIFFYYTMGWYRQAPGKQRELVAGITIGGSTNYADSVKGRFTISRDNAKNTVYLQMNSLKPEDTAVYYCNVVKYVYIYSYWEYYYWGQGTQVTVSS	low polyreactivity
QVQLVESGGGLVQAGGSLRLSCAASGRTFSNYAMGGYRQAPGKERELVAAISERGGSTYYADSVKGRFTISRDNPKNSVFVQLNSLKPEDTAVYDCNALFRLRAYAEMDYWGQGTQVTVSS	high polyreactivity
QDQLVESGGGLVQAGGSLRLSCAASGGTFPEYALGWYRQAPGKERELLAAIRTDGRTYYADSVKGRFTISRDNAKNTVYLQMNSLKPEDTAVYYCAADSRYSRPYTWRKAYDYLGQGTQVTVSS	low polyreactivity
QVQLVESGGGLVQAGGSLRLSCAASGSTFQSYAMGWYRQAPGKERELVAGITSGDSTNYADSVKGRFTISRDNAKNTVYFQMISLKPEDTAVYYCNAVTQASYYYWGQGTQVTVSS	low polyreactivity
QVQLVETGGGLVQAGGSLRLSCAASGFTILGYDMGWYRQAHGKERELVAAFDYSGGSTYYADSVKGRFTISRDNAQNTVYLQMNSLKPEDTAVYYCAAYTGKGRAYFRWMDYWGQGTQVTVSS	high polyreactivity
QVQLVESGGGLVQAGGSLRLSCAASGFIFGYYAMGWYRQAPGKEREFVAAISARSGRTYYADSVKGRFTISRDNAKNTVYLQMNSLKPEDTAVYYCNTAYAYSGRYDYWGQGTQVTVSS	high polyreactivity
QVQLVESGGGLVQAGGSLRLSCAASGITLSSNAMGWYRQAPGKERELVAAITWRTDRTYYADSVKGRFTISRDNAKNTVYLQMNSLKPEDTAVDYCAARTTVSSARYDYWGQGTQVTVSS	high polyreactivity
QVQLVESGGGLVQAGGSLRLSCAASGRTFRINAMGWYRQAPGKEREFVASIRYSGGSTYYADSVKGRFTISRDNAKNTVYLQMNSLKPEDTAVYYCAAVRSYYRGYDYWGQGTQVTVSS	high polyreactivity
QVQLVESGGGLVQAGGSLRLSCAASGRIFAYYAMGWYRQAPGKERELVAGISKSGGRTYYADSVKGRFTISRDNAKNTVYLQMNSLKPEDTAVYYCAVESYRRYYYWGQGTQVTVSS	high polyreactivity
QVQLVESGGGLVQAGGSLRLSCAASGGTLYRNVMGWYRQAPGKERELVAAISKSGGSTYYADSVKGRFTISRDNAKNTFYLQMNSLKPEDTAVYYCDVSHNRGYDSWGQGTQVTVSS	high polyreactivity
QVQLVESVGGLVQAGGSLSLSCAASGSTFKQYAMGWYRQAPGKERELVAAISSRGGSTHYADSVKGRFTISRDNAKYTVYLQMNSLKPEDTAVYYCARDTDPQYSRSSDYDYWGQGTQVTVSS	low polyreactivity
QDQLVQSGGGIVQAGGSLRLSCAASGSTFILYAMGWYRQAPGKESELVAAISTSGGSTYYADSVKGRVTISRDNAKNTVYFHMNSLKPDDTAVYYCIAGLSVTHGTSIPFRKYEYWGQGTQVNVSS	low polyreactivity
QVQLVESGGGLVQAGGSLRLSCAASGFILPWYVMGWYRQAPGKERELVAAISGTGGSTYYADSVKGRFTISRDNAKNTVYLQMNSLKPEDTAVYYCAAGAFYAGYYWEFYYWGQGTQVTVSS	high polyreactivity
QDQLVESGGGLVQAGGSLRLSCAASGSTLRYYAMGWYRQAPGKERELVAAITYSAGRTSYADSVKGRFTISRDNAKNTVYLQMNSLKPEDTAVYYCATQWHSYLRRYDYWGQGTQVTVSS	low polyreactivity
QVQLVESGGGLVQAGGSLRLSCAASGSTFRVNAMGWYRQAPGKEREFVATIRGGGVRTYYADSVKGRFTISRDNAKNTVYLQMNSLKPEDTAVYYCNRKFYWRRDYWGQGTQVTVSS	high polyreactivity

Sequence	polyreactivity (PSR sort gate)
QDQLVESGGGLVQAGGSLRLSCAASGFNFDRYAMGWYRQAPGKERELVAAISRRGGSTYYADSVKGRFTISRDNAKNTVYLQMNSQKPEDTAVYYCAASRPSPRPRYGYWGQGTQVTVSS	high polyreactivity
QVQLVESGGGLVQAGGSLRISSAASGSITPYYTMGWYRQAPGKERELVATITSGGNTYYADSVKGRFTISRDNAQNTVYLQLNSVKPEDTAVYYCAAEGVWGIFDYWGKGTQVTVSS	low polyreactivity
QVQLVESGGGLVQAGGSLRLSCAASGITFIYYAMGWYSQAPGKDRELVAAISRSGGSTYYADSVKGRFTISRDNAKNTVYLQMNSLKPEETAVYYCAADGSKYSGRVTGDYWGQGTQVTVSS	high polyreactivity
QVQLVESGGGLVQAGGSLRLSCAASGRTFWYYARGWYRQAPGKERELVAYADSVKGRFTISRDNAKNTVYLQMNSLKQEDTAVYYCAVGPVVWFSSSLYYTDYYYWGQGTQVTVSS	low polyreactivity
QVQLVESGGGLVQAGGSLRLSCAASGGTFSYYAMGWYRQAPGKGELVAAISSGGSTNYADSVKGRFTISRDNAKNTVYLQMNSLKPEDTAVYFCAARYRFWGPYNYWGQGTQVTVSS	high polyreactivity
QVQLVESGGGLVQAGGSLRLICAASGSIFSKYVMGWYREAPGKERDLVAAISWSGTRTYYADSVKGRFTISRDNAKNTVILQMNSMKAEDTAVYYCAARRLYAGHQYDYWGQGTIVTVSS	high polyreactivity
QVQLVESGGGLVQAGGRLRLSSAASGSTFGYYAMGWYRQAPGKERELVAAISAGGGSTYYADSVKGRFTISRDNAKNTVYLQMISLKPEDTAVYYCAARGPHIPVKTYDYWGQGTQVTVSS	high polyreactivity
QVQLVESGGGLVQAGGSLRLSCAASGRIFLLNPMGWYRKAPGKERELVARISSGRTYYADSVKGRFTISRDNAKNTVYLQMNILKPEDTAVYYCNATVSSSKYRYFYVNPYDYWGQGTQVTVSS	low polyreactivity
QVQLVESGGGLVQAGGSLRLSCAASGRIFSRYAMGWYRQAPGKERELVAIISSGDSTNYADSVKGRFTISRDNAKNTVYLQMNSLKPEDTAVYYCAAANWGTPPYDDWGQGTQVTVSS	low polyreactivity
QVQIEESGGGLVQAGGSLRLSCAASGRTFLHKDMGWYRPAPGKERELVAAINVSDGSTYYADSVKGRFTISRDNAKNTVYLQMNSLKPEDTAVYYCAKASYIIFRFEYRSGYDYWGQGTQVTVSS	low polyreactivity
QVQLVASGGGLVQAGGSLRLSCAASGFIVSVYAMGWYRQAPGKERELVAVISTSGGRTYYADSVKGRFTISRDNAQNTVYLQMNSLKPEDTAVYYCAADGFQYTLGNYYWGQGTHVTVSS	high polyreactivity
QVQLVESGGGLVQAGGSLRLSCAASGSIFYTNAMGWYRPAPGKERELVAAIRTGGSTNYADSVKGRFTISRDNAKNTVYLQMNSLKPEDTAVYYCAAAYGYGHKKYGYWGQATQVTVSS	low polyreactivity
QVQLVESGGGLVQAGGSLRLSCAASGSTFGRYAMGWYRQATGKEMELVAAITRSGGRTYYADSVKGRFTISRDNAKNNVYLQMNSLKPEDTAVYYCAAVGNLYYTSHWQYDYWGQGTQVTVSS	high polyreactivity
QVQLVESGGGLVQAGGSLRLSCAASGRTFTVYTMGWYRQAPGKERELVAVISTGGRTYYADSVKGRFTISRDNAMNTVYLQMNSLKPEDTAVYYCAAKFTREYYWGQGTQVTVSS	high polyreactivity
QVQLVESGGGLVQAGGSLRLSCAASGRTFRRYTMGWYRQAPGKERELVATISSGGSTYADSVKGRFTISRDNAKNTVYLQMNSLKPEDTAVYYCAARYDVAWYSKRYSWGQGTQVTVSS	high polyreactivity
QVQLVESGGGLVQAGGSLRLSCAASGRTFGINDMGWYRQAPGKERELVAVIRSGGGITFYADSVKGRFTISRDNAKNTVYLQMTSLKPEDTAVYYCAKTRRDFYDAINGGGPERYDYWGQGTQVTVSS	low polyreactivity
